For the assay, the system named is HB101/pPAP37. Kind of assay: Hemagglutination titer of PapD mutants. The class given is cell-based, E. coli. The following applies: induction with 0.01 mM IPTG; greatest bacterial dilution which still agglutinates erythrocytes. How it is done:
*The hemagglutionation (HA) titer was quantitated after induction with
0.01 mM IPTG. The HA titer represents the greatest bacterial dilution
which still agglutinates erythrocytes. HB101/pPAP37 expressing wild type
PapD has an HA titer of 128.

Data on 1 molecule can be found in patent US6001823A, “Treatment or prophylaxis of diseases caused by pilus-forming bacteria” (priority 1995, dated 1999).

B1: wild type PapD: wild type periplasmic chaperone PapD (protein, UniProt P15319 22-239, looked up)
Chaperone protein PapD: AVSLDRTRAVFDGSEKSMTLDISNDNKQLPYLAQAWIENENQEKIITGPVIATPPVQRLEPGAKSMVRLSTTPDISKLPQDRESLFYFNLREIPPRSEKANVLQIALQTKIKLFYRPAAIKTRPNEVWQDQLILNKVSGGYRIENPTPYYVTVIGLGGSEKQAEEGEFETVMLSPRSEQTVKSANYNTPYLSYINDYGGRPVLSFICNGSRCSVKKEK
As for B1, the HA titer was 128.
